Where no end group is shown, it is not given here.
How the values were obtained:
Test in all cases: cell-based or functional assay
EDG7 = target: T1, EDG7 (UniProt Q9UBY5 1-353)
T1 sequence (looked up): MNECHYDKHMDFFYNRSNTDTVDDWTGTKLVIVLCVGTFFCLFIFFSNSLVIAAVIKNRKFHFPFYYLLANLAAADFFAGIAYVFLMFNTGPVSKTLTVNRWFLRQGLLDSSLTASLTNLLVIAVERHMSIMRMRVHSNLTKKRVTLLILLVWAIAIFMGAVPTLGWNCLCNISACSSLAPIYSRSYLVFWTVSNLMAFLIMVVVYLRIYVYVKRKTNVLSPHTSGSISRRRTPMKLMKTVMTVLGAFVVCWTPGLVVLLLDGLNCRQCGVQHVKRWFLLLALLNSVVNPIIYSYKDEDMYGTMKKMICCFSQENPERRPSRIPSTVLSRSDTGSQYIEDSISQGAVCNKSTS

BRS3 = target: T2, BRS3 (UniProt P32247 1-399)
T2 sequence (looked up): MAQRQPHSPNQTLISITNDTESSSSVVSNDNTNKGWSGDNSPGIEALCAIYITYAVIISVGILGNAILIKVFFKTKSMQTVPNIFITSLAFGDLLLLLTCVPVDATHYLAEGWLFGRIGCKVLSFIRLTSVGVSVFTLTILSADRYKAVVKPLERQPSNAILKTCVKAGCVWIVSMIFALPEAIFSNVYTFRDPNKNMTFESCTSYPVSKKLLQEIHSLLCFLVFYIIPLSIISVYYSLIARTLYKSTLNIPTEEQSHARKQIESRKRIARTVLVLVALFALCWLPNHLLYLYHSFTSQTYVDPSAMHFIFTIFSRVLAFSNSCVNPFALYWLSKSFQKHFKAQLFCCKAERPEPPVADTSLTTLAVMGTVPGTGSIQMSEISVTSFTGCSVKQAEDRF

P2RY12 = P2RY12 (UniProt Q9H244 1-342)
NPFFR1 = NPFFR1 (UniProt Q9GZQ6 1-430)
MTNR1A = MTNR1A (UniProt P48039 1-350)
CMKLR1 = target: T3, CMKLR1 (UniProt Q99788 1-373, limits assumed)
T3 sequence (looked up): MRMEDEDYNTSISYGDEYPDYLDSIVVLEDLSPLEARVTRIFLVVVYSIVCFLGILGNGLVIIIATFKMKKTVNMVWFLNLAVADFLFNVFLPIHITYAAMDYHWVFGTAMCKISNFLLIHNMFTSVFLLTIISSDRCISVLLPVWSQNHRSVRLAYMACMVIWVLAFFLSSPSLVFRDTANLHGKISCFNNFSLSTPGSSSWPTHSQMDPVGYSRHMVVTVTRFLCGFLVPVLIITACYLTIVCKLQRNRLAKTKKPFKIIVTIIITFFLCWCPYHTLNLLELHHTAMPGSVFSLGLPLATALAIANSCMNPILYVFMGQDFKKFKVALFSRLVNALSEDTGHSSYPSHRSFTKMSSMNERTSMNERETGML

CHRM2 = target: T4, CHRM2 (UniProt P08172 1-466)
T4 sequence (looked up): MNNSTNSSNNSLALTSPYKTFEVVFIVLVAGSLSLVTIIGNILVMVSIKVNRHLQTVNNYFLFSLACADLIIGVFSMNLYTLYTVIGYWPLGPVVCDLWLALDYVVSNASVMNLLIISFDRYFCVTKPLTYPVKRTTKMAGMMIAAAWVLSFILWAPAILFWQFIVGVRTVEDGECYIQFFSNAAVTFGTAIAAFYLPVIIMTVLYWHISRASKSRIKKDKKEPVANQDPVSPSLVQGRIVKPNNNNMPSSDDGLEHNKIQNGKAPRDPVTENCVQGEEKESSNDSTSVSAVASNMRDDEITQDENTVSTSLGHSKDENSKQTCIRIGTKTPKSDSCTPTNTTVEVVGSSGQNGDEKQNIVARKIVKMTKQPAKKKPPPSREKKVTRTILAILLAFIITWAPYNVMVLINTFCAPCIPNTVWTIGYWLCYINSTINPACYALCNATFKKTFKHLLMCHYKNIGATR

PPYR1 = PPYR1 (UniProt P50391 1-375)
CHRM5 = target: T5, CHRM5 (UniProt P08912 1-532)
T5 sequence (looked up): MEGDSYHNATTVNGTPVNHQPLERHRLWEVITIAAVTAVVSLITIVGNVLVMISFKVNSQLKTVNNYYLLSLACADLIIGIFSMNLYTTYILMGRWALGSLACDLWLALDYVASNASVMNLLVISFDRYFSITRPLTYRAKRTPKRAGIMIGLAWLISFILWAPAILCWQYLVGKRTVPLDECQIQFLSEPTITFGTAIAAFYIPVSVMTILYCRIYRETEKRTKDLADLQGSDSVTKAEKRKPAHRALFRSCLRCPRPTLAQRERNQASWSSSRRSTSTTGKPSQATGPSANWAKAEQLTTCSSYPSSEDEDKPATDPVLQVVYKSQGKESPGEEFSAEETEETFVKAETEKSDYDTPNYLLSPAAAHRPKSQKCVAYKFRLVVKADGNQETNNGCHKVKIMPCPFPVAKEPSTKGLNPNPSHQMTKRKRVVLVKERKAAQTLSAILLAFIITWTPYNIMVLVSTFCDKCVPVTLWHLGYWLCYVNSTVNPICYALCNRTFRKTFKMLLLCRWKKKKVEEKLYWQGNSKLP

Chain of NPFFR1 (Q9GZQ6 whole entry): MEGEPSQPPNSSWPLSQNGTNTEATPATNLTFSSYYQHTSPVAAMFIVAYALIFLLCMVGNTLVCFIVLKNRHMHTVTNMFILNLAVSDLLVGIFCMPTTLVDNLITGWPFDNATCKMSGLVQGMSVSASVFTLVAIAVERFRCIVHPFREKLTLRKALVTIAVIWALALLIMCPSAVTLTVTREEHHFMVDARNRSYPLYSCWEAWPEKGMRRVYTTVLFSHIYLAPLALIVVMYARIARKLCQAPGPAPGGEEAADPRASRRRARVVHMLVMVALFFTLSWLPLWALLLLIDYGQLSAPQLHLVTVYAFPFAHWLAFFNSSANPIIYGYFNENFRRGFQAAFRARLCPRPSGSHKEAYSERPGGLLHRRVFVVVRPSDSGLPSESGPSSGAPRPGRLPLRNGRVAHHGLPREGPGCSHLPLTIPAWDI
Chain of MTNR1A (P48039 whole entry): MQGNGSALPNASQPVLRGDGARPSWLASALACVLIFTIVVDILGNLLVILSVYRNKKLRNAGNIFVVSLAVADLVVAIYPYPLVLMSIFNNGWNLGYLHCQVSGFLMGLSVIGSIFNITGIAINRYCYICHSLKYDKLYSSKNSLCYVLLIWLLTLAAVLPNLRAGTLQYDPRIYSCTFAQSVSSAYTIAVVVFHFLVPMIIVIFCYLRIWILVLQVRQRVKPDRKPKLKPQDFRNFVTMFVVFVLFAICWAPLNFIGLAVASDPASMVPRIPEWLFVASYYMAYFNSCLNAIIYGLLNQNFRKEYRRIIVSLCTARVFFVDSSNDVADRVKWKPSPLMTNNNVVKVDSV
Chain of P2RY12 (Q9H244 whole entry, one chain of several): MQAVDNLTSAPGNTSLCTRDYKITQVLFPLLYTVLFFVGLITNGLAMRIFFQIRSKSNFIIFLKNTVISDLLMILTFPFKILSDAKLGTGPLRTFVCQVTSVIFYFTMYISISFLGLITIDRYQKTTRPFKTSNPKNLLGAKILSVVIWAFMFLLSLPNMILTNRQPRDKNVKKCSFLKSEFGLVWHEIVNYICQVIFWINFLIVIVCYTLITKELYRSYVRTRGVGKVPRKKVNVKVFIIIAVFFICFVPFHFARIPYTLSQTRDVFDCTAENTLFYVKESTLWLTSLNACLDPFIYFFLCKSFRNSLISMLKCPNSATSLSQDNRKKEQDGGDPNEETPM
Chain of PPYR1 (P50391 whole entry): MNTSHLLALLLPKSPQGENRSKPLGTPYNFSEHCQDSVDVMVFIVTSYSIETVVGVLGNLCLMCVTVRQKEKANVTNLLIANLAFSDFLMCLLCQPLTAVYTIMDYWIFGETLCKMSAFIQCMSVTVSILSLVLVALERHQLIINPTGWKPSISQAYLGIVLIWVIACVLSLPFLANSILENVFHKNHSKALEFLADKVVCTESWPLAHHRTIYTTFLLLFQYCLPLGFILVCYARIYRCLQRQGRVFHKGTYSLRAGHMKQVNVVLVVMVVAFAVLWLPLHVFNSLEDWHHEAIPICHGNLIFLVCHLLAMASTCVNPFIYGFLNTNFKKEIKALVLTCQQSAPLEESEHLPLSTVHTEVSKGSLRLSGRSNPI

Binder: QATVGDVNTDRPGLLDLK (also: synthesised on Rink amide resin, C-terminal amide not given here outright) [octadecaneuropeptide (ODN)]
- % Activity, arrestin, antagonist mode, 2.5 uM (EDG7): 5%
- % Activity, arrestin, antagonist mode, 2.5 uM (BRS3): -5.8%
- % Activity, arrestin, antagonist mode, 2.5 uM (P2RY12): -11%
- % Activity, arrestin, antagonist mode, 2.5 uM (NPFFR1): -4.2%
- % Activity, arrestin, antagonist mode, 2.5 uM (MTNR1A): 2.2%
- % Activity, arrestin, antagonist mode, 2.5 uM (CMKLR1): -18.3%
- % Activity, arrestin, antagonist mode, 2.5 uM (CHRM2): 3.3%
- % Activity, arrestin, antagonist mode, 2.5 uM (PPYR1): -11.4%
- % Activity, arrestin, antagonist mode, 2.5 uM (CHRM5): -1.5%

— patent publication US20260184748A1 (University of Pennsylvania, published 2026)
